Reference: patent publication US20210277441A1, “METHOD OF SELECTING A POLYPEPTIDE OF INTEREST” (IMPERIAL COLLEGE INNOVATIONS LIMITED, priority 2018, published 2021)

Legend:
[1] = Kinetics of evolved and parental enzymes, 2-methylpyrroline as variable substrate; type: biochemical; settings: reductase activity towards 2-methylpyrroline
[2] = test system: LS1 strain (ΔadhE ΔldhA double mutant) cells; assay: Metabolic complementation (anaerobic growth recovery) of LS1/AL strain; type: cell-based, Escherichia coli; settings: media supplemented with 2-methylpyrroline
Experimental: The LS1 mutant strain and the parental BW25113 strain were transformed with the desired plasmid and overnight pre-cultures were grown aerobically in 15 mL Falcon tubes with M9 media (0.4% glucose). These pre-cultures were used to inoculate 10 mL Hungate tubes with M9 medium (0.4% glucose) supplemented with 100 μg/mL ampicillin, 1 mM IPTG and with or without the specific substrate of the dehydrogenase under anaerobic conditions at 37° C. Metabolic complementation was assessed by measuring the optical density at 600 nm every two hours during daytime.

AL cells = assay: 1H NMR analysis of fermentation broth of anaerobic cultures; type: cell-based, Escherichia coli; design: Substrate concentration: unit not given here; settings: exogenous substrate 2-methyl-1-pyrroline

B1: MsIRED-s: MsIRED variant with N32E, R33V, T34R and K37R, NADH-dependent (protein)
chain: MKPTLTVIGAGRMGSALIKAFLQSGYTTTVWEVRKARSEPLAKLGAHLADTVRDAVKRSDIIVVNVLDYDTSDQLLRQDEVTRELRGKLLVQLTSGSPALAREQETWARQHGIDYLDGAIMATPDFIGQAECALLYSGSAALFEKHRAVLNVLGGATSHVGEDVGHASALDSALLFQMWGTLFGTLQALAISRAEGIPLEKTTAFIKLTEPVTQGAVADVLTRVQQNRLTADAQTLASLEAHNVAFQHLLALCEERNIHRGVADAMYSVIREAVKAGHGKDDFAILTRFLK
modifications: variant of Myxococcus stipitatus imine reductase
notes: MsIRED variant with N32E, R33V, T34R and K37R, NADH-dependent
Q: Which results are given for B1?
A: activity with NADPH [1]: no activity was detected; anaerobic growth compared with best variant of previous studies [2]: more efficiently; Acetate concentration (AL cells): 15.9; Ethanol concentration (AL cells): 0; Formate concentration (AL cells): 12.8; Lactate concentration (AL cells): 0; Substrate concentration (AL cells): 0.8; Succinate concentration (AL cells): 2; Product concentration (AL cells; product 2-methylpyrrolidine): 13.4
